Measurements published in PMC2748697.

Molecular target: tubulin (bovine, Cytoskeleton) (bovine) (UniProt Q6B856)

reduction of the extent of tubulin polymerization at 0.5, 1 and 10 µM Capzb2 (8%, 16%, 35%; none at 0.1 µM): 35%
Substance: GST-tagged full-length Capzb2 (1–271) (from UniProt P47757-2 1-272) (natural protein)
